Measurements published in US20240391992A1 (Eli Lilly, published 2024).

T1: human XCR1 (human, UniProt P46094 1-333)
T1 sequence (looked up): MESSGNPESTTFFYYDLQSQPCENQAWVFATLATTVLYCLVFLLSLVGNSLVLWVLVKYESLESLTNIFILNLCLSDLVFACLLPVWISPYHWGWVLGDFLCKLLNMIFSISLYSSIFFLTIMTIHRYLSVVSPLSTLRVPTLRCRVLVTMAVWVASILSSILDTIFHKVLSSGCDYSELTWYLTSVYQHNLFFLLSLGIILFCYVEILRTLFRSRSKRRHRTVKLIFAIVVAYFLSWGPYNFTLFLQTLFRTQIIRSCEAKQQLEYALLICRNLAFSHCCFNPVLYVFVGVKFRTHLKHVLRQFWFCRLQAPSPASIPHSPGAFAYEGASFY


Tests used:
[1] = target: cynomolgus (cyno) XCL1 (cynomolgus); test: flow cytometry, 293T cells with 1 ug/mL chemokine and 100 nM isotype control antibody, anti-human-Fc/PE
human XCL1 (human) = human XCL1 (human) (UniProt P47992); test: as above
human XCL2 (human) = human XCL2 (human) (UniProt Q9UBD3); test: as above
mouse XCL1 (mouse) = mouse XCL1 (mouse) (UniProt P47993); test: as above
rat XCL1 (rat) = rat XCL1 (rat) (UniProt P51672); test: as above
human XCR1 = target: T1, human XCR1; test: cell-based or functional assay

Chain of rat XCL1 (rat) (P51672 22-114 limits assumed): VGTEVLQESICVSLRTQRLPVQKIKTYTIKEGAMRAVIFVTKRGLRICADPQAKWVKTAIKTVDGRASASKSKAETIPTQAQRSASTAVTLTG
Chain of mouse XCL1 (mouse) (P47993 22-114 limits assumed): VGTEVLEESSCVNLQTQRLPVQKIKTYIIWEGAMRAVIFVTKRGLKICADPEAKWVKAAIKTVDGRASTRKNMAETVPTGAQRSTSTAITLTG

MFI [1] [MFI]	MFI (human XCL1 (human)) [MFI]	MFI (human XCL2 (human)) [MFI]	MFI (mouse XCL1 (mouse)) [MFI]	MFI (rat XCL1 (rat)) [MFI]	GeoMean EC50 (nM), migration of XCR1-expressing Ba/F3 cells (Boyden chamber) (human XCR1) [nM]	Molecule
8.4	7.6	8.6	8	8.2		hIgG1-AAS isotype control antibody
					858	human XCL1 (ligand) VGSEVSDKRTCVSLTTQRLPVSRIKTYTITEGSLRAVIFITKRGLKVCADPQATWVRDVVRSMDRKSNTRNNMIQTKPTGTQQSTNTAVTLTG
					115	Human XCL1 CC3 (ligand) VGSEVSDKRTCVSLTTQRLPCSRIKTYTITEGSLRAVIFITKRGLKVCADPQATWVRDCVRSMDRKSNTRNNMIQTKPTGTQQSTNTAVTLTG
